Measurements published in patent publication US20250145690A1 (US Dept. of Health and Human Services, published 2025).
Substitutions are numbered along the chain they refer to.

T1: HCoV-229E spike protein (Sino Biological 40605-V08B) (HCoV-229E, UniProt P15423 16-1115)
T1 sequence: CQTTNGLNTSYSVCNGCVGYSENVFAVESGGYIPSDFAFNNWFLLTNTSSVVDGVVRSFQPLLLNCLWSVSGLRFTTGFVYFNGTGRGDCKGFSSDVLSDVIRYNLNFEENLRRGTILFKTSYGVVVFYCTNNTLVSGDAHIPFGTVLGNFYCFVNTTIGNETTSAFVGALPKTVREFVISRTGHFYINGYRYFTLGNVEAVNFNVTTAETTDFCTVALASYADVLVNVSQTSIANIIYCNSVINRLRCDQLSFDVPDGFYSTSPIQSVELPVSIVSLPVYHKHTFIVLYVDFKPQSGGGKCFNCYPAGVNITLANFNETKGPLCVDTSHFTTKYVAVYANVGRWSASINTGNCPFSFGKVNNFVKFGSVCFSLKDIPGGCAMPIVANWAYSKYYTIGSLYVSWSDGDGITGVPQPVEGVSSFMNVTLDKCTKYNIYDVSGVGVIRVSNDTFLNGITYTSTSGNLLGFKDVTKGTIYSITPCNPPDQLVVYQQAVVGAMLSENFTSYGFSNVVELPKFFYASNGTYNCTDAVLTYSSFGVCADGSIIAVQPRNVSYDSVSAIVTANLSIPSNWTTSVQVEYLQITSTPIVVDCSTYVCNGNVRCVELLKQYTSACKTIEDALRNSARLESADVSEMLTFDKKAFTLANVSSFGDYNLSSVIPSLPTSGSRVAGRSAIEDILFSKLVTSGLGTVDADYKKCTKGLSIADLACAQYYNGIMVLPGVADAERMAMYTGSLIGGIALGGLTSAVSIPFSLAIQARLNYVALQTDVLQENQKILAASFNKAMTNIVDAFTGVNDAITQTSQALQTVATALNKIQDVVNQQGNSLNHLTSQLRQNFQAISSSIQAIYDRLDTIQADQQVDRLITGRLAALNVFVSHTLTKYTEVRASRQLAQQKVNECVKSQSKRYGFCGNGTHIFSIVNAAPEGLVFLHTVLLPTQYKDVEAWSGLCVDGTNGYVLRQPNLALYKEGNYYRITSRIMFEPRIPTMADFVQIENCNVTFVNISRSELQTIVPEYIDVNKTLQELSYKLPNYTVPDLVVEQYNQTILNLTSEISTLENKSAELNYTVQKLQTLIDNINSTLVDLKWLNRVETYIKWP

T2: HCoV-NL63 spike protein (Sino Biological 40604-V08B) (HCoV-NL63, UniProt Q6Q1S2 19-1296)
T2 sequence: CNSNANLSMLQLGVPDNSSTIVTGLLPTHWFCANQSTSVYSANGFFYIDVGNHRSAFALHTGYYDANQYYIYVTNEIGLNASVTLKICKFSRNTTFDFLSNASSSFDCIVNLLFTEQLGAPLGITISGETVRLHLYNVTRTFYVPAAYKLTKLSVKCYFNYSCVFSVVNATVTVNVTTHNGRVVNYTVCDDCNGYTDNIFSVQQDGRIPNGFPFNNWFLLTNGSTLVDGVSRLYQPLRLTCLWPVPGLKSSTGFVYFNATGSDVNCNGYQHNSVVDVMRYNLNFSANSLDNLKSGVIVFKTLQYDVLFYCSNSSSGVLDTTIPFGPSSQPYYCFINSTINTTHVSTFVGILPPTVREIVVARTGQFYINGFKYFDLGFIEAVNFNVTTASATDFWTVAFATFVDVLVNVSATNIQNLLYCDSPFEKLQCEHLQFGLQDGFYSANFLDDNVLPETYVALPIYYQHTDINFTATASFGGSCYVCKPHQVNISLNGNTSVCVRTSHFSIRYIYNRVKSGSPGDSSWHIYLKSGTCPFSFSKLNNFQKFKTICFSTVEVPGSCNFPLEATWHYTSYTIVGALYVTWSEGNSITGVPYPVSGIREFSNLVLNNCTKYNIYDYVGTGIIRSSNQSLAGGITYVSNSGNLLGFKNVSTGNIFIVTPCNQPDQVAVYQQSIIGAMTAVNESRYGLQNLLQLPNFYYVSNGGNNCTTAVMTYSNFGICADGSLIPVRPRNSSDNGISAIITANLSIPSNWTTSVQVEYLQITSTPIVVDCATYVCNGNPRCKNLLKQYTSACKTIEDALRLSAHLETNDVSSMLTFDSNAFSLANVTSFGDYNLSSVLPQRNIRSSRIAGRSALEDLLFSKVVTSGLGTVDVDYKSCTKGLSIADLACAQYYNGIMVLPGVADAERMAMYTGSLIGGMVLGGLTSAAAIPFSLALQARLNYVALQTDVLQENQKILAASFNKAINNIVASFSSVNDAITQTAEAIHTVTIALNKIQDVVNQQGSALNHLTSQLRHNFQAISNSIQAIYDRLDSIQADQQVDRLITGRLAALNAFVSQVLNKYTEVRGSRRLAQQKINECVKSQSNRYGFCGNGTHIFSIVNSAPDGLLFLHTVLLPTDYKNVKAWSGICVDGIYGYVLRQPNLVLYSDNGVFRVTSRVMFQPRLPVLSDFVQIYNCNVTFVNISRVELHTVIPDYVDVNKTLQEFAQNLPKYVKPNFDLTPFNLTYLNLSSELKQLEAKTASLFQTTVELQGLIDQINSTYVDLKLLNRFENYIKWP

B1: COV44-74 (antibody, V domains shown)
VH: QVQLVQSGAEVKKPGASVKVSCKASGYTFSSYYMNWVRQAPGQGLEWVGLISPSAGYTAYAQMFQGRVTMTRDTSTSTVYMELSSLRSEDTAVYYCARVAVAGPNDYWGQGTLVTVSS
VL: EIVLTQSPGTLSLSPGERATLSCRASQSISSSYLAWYQQKPGQAPRLVILAASTRATGIPDRFSGSGSGTDFTLTISRLEPEDFALYYCQHYRSSPPLWTFGQGTKVEIR
B2: COV77-09 (antibody, V domains shown)
VH: EVQLVESGGGLVQPGRSLTLSCSGSGFTFGDYSMSWVRQAPGKGLEWLGFIRSQTYGGTTQYAASVQGRFTILRDDSKSIAYLQMNSLKTEDTAVYYCTRNYGVGDYWGQGTLVTVSS
VL: DIVMTQSPASLAVSLGERATIHCRSSLSVLNSSNNKNYLAWYQQKAGQPPKLLMYWASTRESGVPERFSGSGSGTDFTLTISSLEAGDVAVYYCQQYYDKLSLTFGGGTKVEIK
B3: COV49-54 (antibody, V domains shown)
VH: EVQLVESGGGLVQPGGSLRLSCAASGFIVSSNYMSWVRQAPGKGLEWVSMIYSGGSTVYADSVKGRFTISRDISKNTLYLQMNSLRAEDTAVYYCALETFDYWGQGTLVTVSS
VL: DIQMTQSPSSLSASVGDRVTITCRASQGITNHLAWYQQKPGKVPKLLIYAASTLQSGVPSRFSGSGYGTDFTLTISSLQPEDVASYYCQKYDSAPRTFGQGTKVEIK
B4: COV23-01 (antibody, V domains shown)
VH: QVTLKESGPVLVKPTETLTLTCTVSGFSLSNTKMGVSWIRQPPGKALEWLAHIFSNDRKSYTTSLKSRLTISEDTSKSQIVLTMTNMDPVDTATYYCARIGAGGTYNFYYYMDVWGKGTTVTVSS
VL: EIVLTQSPATLSLSPGERATLSCRASQSVSSYLAWYQQKPGQAPRLLIYDASNRATGIPARFSGSGSGTDFTLTISSLEPEDFAVYYCQQRSLYYTFGQGTKLEIK
B5: COV57-34 (antibody, V domains shown)
VH: QVQLVQSGTEVKKPGSSVKVSCRASGGTLSSYSVSWVRQAPGQGLEWMGRIIPILDKKTYAQKYQGRVTIIADTSTSTVYMELSSLKSDDSAVYYCTTFDYDTSGQRDQHDYWGQGTPVTVSS
VL: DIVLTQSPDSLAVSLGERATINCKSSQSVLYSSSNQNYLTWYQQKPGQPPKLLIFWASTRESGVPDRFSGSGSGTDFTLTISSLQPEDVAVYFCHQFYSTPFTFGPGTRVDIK
B6: COV57-13 (antibody, V domains shown)
VH: B5 VH with D89E, P118L
VL: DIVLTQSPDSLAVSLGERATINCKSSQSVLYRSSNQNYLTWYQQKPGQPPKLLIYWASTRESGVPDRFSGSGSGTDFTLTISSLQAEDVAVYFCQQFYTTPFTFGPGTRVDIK
B7: COV57-38 (antibody, V domains shown)
VH: QVQLVESGGGVVQPGRSLRLSCEASGFNFNNYGMHWVRQAPGKGLEWVAVISYEGSKKYYEDSVRGRFTISRDFSKNTLYLQMNSLRAEDTAVYYCAKANEIFWLGQFKNDALDFWGQGTMVTVSS
VL: QSVLTQPPSASGTPGQRVAVSCSGSSSNIGTNFVNWYQHLPRTAPKLLIYRDNQRPSGVPDRFSGSKSGTSASLAISGLQSEDEADYYCAVWDDSLNGQVFGGGTKVTVL
B8: COV44-37 (antibody, V domains shown)
VH: QVQLVQSGAEVKKPGASVMLSCRASGYTFINDYMHWVRQAPGEGFEWMGIINPTGDGTKFAQKFQGRVTMTRDSSTTTVHMELRSLTSGDTAVYFCATGGRQSAFDIWGQGTVVIVSS
VL: DIVMTQSPLSLPVTPGESASISCRSSQSLLQNNGYNYLDWYLQKPGQSPQLLIYLGSYRASGVPDRFSGSGSGTDFTLKISRVEAEDVGVYYCVQAQQAPPLYTFGQGTKLQIK

Target: T1, HCoV-229E spike protein (Sino …)
Assay: bead flow cytometry, AUC minus CD4

Binder	binding result
B1	no binding (tested: 200 µg/mL)
B2	no binding (tested: 200 µg/mL)
B3	no binding (tested: 200 µg/mL)
B4	no binding (tested: 200 µg/mL)
B5	no binding (tested: 200 µg/mL)
B6	no binding (tested: 200 µg/mL)
B7	no binding (tested: 200 µg/mL)
B8	no binding (tested: 200 µg/mL)

Target: T2, HCoV-NL63 spike protein (Sino …)
Assay: bead flow cytometry, AUC minus CD4

Binder	binding result
B1	no binding (tested: 200 µg/mL)
B2	no binding (tested: 200 µg/mL)
B3	no binding (tested: 200 µg/mL)
B4	no binding (tested: 200 µg/mL)
B5	no binding (tested: 200 µg/mL)
B6	no binding (tested: 200 µg/mL)
B7	no binding (tested: 200 µg/mL)
B8	no binding (tested: 200 µg/mL)

Target: SARS-CoV-2 spike receptor binding domain (RBD), recombinant (SARS-CoV-2, UniProt P0DTC2 319-541)
Assay: bead flow cytometry, AUC minus CD4

Binder	binding result
B1	no binding (tested: 200 µg/mL)
B2	no binding (tested: 200 µg/mL)
B3	no binding (tested: 200 µg/mL)
B4	no binding (tested: 200 µg/mL)
B5	no binding (tested: 200 µg/mL)
B6	no binding (tested: 200 µg/mL)
B7	no binding (tested: 200 µg/mL)
B8	no binding (tested: 200 µg/mL)

Target: SARS-CoV-2 spike N-terminal domain (NTD), recombinant (SARS-CoV-2, UniProt P0DTC2 14-305)
Assay: bead flow cytometry, AUC minus CD4

Binder	binding result
B1	no binding (tested: 200 µg/mL)
B2	no binding (tested: 200 µg/mL)
B3	no binding (tested: 200 µg/mL)
B4	no binding (tested: 200 µg/mL)
B5	no binding (tested: 200 µg/mL)
B6	no binding (tested: 200 µg/mL)
B7	no binding (tested: 200 µg/mL)
B8	no binding (tested: 200 µg/mL)
